Columns and labels:
[1] = target: T1, Integration Host Factor (IHF) (Escherichia coli (purified from E. coli …, UniProt P0A6X7;P0A6Y1 1-99;1-94)); test: EMSA; 1 mM Mg2+; apparent; 5 mM Tris-HCl pH 7.4-7.6, 70 mM KCl, 0.1 mM EDTA, 0.5-10% ethylene glycol, fluorescence at 10 C; Mg buffer: 5 mM Tris-HCl pH 7.4, 1 mM MgCl2, 10% ethylene glycol; stopped flow 20 C with 0.01% NP-40; conditions: protein: recombinant; copies: 1;1; label: none for EMSA (SYBR Green); 5' TAMRA for fluorescence intensity; donor-acceptor pair for stopped flow; four-way junction of 4 strands (20 nt), four 10 bp arms
T1 sequence (P0A6X7 whole entry, chain 1 of 2): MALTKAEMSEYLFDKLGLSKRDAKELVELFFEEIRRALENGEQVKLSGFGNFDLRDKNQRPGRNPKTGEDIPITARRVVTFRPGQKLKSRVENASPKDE
T1 sequence (P0A6Y1 whole entry, chain 2 of 2): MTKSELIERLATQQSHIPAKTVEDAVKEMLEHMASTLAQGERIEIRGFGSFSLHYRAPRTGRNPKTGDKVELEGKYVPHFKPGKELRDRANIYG

[2] = target: T1, Integration Host Factor (IHF); test: EMSA; 70 mM KCl; apparent; 5 mM Tris-HCl pH 7.4-7.6, 70 mM KCl, 0.1 mM EDTA, 0.5-10% ethylene glycol, fluorescence at 10 C; Mg buffer: 5 mM Tris-HCl pH 7.4, 1 mM MgCl2, 10% ethylene glycol; stopped flow 20 C with 0.01% NP-40; conditions: protein: recombinant, copies: 1;1, label: none for EMSA (SYBR Green)
[3] = target: T1, Integration Host Factor (IHF); test: fluorescence anisotropy; 1 mM Mg2+?; 5 mM Tris-HCl pH 7.4-7.6, 70 mM KCl, 0.1 mM EDTA, 0.5-10% ethylene glycol, fluorescence at 10 C; Mg buffer: 5 mM Tris-HCl pH 7.4, 1 mM MgCl2, 10% ethylene glycol; stopped flow 20 C with 0.01% NP-40; conditions: protein: recombinant; copies: 1;1; label: none for EMSA (SYBR Green); 5' TAMRA for fluorescence intensity; donor-acceptor pair for stopped flow; four-way junction of 4 strands (20 nt), four 10 bp arms
[4] = target: T1, Integration Host Factor (IHF); test: fluorescence intensity; 70 mM KCl; 5'-TAMRA; 5 mM Tris-HCl pH 7.4-7.6, 70 mM KCl, 0.1 mM EDTA, 0.5-10% ethylene glycol, fluorescence at 10 C; Mg buffer: 5 mM Tris-HCl pH 7.4, 1 mM MgCl2, 10% ethylene glycol; stopped flow 20 C with 0.01% NP-40; conditions: protein: recombinant; copies: 1;1; label: none for EMSA (SYBR Green); 5' TAMRA for fluorescence intensity; donor-acceptor pair for stopped flow; four-way junction of 4 strands (20 nt), four 10 bp arms
[5] = target: T1, Integration Host Factor (IHF); test: EMSA; 70 mM KCl, no Mg2+; 5 mM Tris-HCl pH 7.4-7.6, 70 mM KCl, 0.1 mM EDTA, 0.5-10% ethylene glycol, fluorescence at 10 C; Mg buffer: 5 mM Tris-HCl pH 7.4, 1 mM MgCl2, 10% ethylene glycol; stopped flow 20 C with 0.01% NP-40; conditions: protein: recombinant; copies: 1;1; label: none for EMSA (SYBR Green); immobile four-way junction of 4 strands (34 nt), four 17 bp arms
[6] = target: T1, Integration Host Factor (IHF); test: fluorescence anisotropy; 70 mM KCl; 2 nM DNA; 5 mM Tris-HCl pH 7.4-7.6, 70 mM KCl, 0.1 mM EDTA, 0.5-10% ethylene glycol, fluorescence at 10 C; Mg buffer: 5 mM Tris-HCl pH 7.4, 1 mM MgCl2, 10% ethylene glycol; stopped flow 20 C with 0.01% NP-40; conditions: protein: recombinant; copies: 1;1; label: fluorescein (end); immobile four-way junction of 4 strands (34 nt), four 17 bp arms
[7] = target: T1, Integration Host Factor (IHF); test: fluorescence intensity; 70 mM KCl; end-labeled; 5 mM Tris-HCl pH 7.4-7.6, 70 mM KCl, 0.1 mM EDTA, 0.5-10% ethylene glycol, fluorescence at 10 C; Mg buffer: 5 mM Tris-HCl pH 7.4, 1 mM MgCl2, 10% ethylene glycol; stopped flow 20 C with 0.01% NP-40; conditions: protein: recombinant, copies: 1;1, label: none for EMSA (SYBR Green), immobile four-way junction of 4 strands, four 17 bp arms
[8] = target: T1, Integration Host Factor (IHF); test: fluorescence intensity; 70 mM KCl; 0.5 nM DNA; printed as <=2.2; 5 mM Tris-HCl pH 7.4-7.6, 70 mM KCl, 0.1 mM EDTA, 0.5-10% ethylene glycol, fluorescence at 10 C; Mg buffer: 5 mM Tris-HCl pH 7.4, 1 mM MgCl2, 10% ethylene glycol; stopped flow 20 C with 0.01% NP-40; conditions: protein: recombinant; copies: 1;1; label: 6-MI; immobile four-way junction of 4 strands (34 nt), four 17 bp arms

B1: J20 junction (structured_DNA)
DNA 1: CCACCGCTCAACTCAACTGC
DNA 2: GCAGTTGAGTCCTTGCTAGG
DNA 3: CCTAGCAAGGGGCTGCTACC
DNA 4: GGTAGCAGCCTGAGCGGTGG
- Kd [1]: 514 ± 141 nM
- Kd ([2]; 5' TAMRA for fluorescence intensity, donor-acceptor pair for stopped flow, four-way junction of 4 strands (20 nt), four 10 bp arms): 170 ± 40 nM
- Kd [3]: 43 ± 11 nM
- Kd [4]: 4.4 ± 0.5 nM

B2: J34 junction (structured_DNA)
DNA 1: CCTTCAACCACCGCTCAACTCAACTGCAGTCTGG
DNA 2: CCAGACTGCAGTTGAGTCCTTGCTAGGACGGAGG
DNA 3: CCTCCGTCCTAGCAAGGGGCTGCTACCGGAAGGG
DNA 4: CCCTTCCGGTAGCAGCCTGAGCGGTGGTTGAAGG
- Kd [5]: 58 ± 36 nM

B3: J34 junction, fluorescein end-labeled (structured_DNA)
DNA 1: CCTTCAACCACCGCTCAACTCAACTGCAGTCTGG
DNA 2: CCAGACTGCAGTTGAGTCCTTGCTAGGACGGAGG
DNA 3: CCTCCGTCCTAGCAAGGGGCTGCTACCGGAAGGG
DNA 4: CCCTTCCGGTAGCAGCCTGAGCGGTGGTTGAAGG
- Kd [6]: 2 nM

B4: JH1 junction (structured_DNA)
DNA 1: CCTTCAACCACCGCTCATGATTACTGCAGTCTGG
DNA 2: CCAGACTGCAGTAATCAACTACTTAGGACGGAGG
DNA 3: CCTCCGTCCTAAGTAGTGGCTGCTACCGGAAGGG
DNA 4: CCCTTCCGGTAGCAGCCTGAGTGGTGGTTGAAGG
- Kd ([2]; end label for fluorescence, immobile four-way junction of 4 strands, four 17 bp arms): 65 ± 8 nM
- Kd [7]: 9.2 ± 2 nM

B5: J34 junction, 6-MI labeled (structured_DNA)
DNA 1: CCTTCAACCACCGCTCAACTCAACTGCAGTCTGG
DNA 2: CCAGACTGCAGTTGAGTCCTTGCTAGGACGGAGG
DNA 3: CCTCCGTCCTAGCAAGGGGCTGCTACCGGAAGGG
DNA 4: CCCTTCCGGTAGCAGCCTGAGCGGTGGTTGAAGG
modifications: 6-methylisoxanthopterin (6-MI) nucleoside
- Kd [8]: < 2.2 nM

From PMC9820253, “Integration Host Factor Binds DNA Holliday Junctions”
